The values that follow come from patent US20210347908A1 (ELPISCIENCE SUZHOU BIOPHARMA, published 2021).

The target in assay [1] is T1, chimeric SIRPα of B-hSIRPA mice (IgV domain of human SIRPα); IgC1/C2, transmembrane and intracellular domains … (human; mouse, UniProt P78324 31-149; P97797 151-513, limits assumed).
T1 construct: domain: IgV domain;domain: IgC1/C2, transmembrane and intracellular domains; whole, on cells (mCD11b+ mF4/80+ spleen monocytes); also called B-hSIRPA mice derived primary monocytes
The assay is described as follows: FACS on spleen cells of B-hSIRPA mice, anti-human IgG secondary antibody, gated on mCD11b/mF4/80 double positive monocytes. As to the method: The humanized mice express a chimeric SIRPα, comprised of IgV domain of human SIRPα and IgC1/C2, transmembrane and intracellular domains of mouse SIRPα. Briefly spleen cells of B-hSIRPA mice were harvested and incubated with anti-SIRPα chimeric antibodies at 4° C. for 1 hour. After washing, fluorescence labeled anti-human IgG 2nd antibody (Life Technologies) was added and incubated at 4° C. for 1 hour. […] Anti-SIRPα positive staining population in mCD11b and mF4/80 double positive subset was calculated.

The target in assay [2] is T2, full length C57BL/6 mouse SIRPα stably expressed on CHOK1 cells (mouse (C57BL/6), UniProt P97797 32-513).
T2 construct: whole, on cells; also called CHOK1-C57BL/6 mouse SIRPα-2.22 cells
T2 sequence (looked up): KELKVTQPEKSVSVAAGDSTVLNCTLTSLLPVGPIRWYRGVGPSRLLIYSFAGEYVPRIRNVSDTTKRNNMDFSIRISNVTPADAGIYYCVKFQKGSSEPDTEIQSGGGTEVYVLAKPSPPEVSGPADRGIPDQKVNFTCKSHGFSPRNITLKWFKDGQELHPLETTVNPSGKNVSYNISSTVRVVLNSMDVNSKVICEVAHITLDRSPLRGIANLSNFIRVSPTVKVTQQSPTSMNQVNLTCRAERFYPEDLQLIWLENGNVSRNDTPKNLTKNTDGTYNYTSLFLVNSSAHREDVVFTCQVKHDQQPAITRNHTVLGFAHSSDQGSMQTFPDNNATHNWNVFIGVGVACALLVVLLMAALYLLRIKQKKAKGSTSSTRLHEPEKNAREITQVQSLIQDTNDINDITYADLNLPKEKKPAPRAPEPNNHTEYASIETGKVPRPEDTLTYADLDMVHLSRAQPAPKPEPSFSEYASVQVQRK
In words: FACS on CHOK1 cells.

The target in assay [3] is T3, biotin labeled soluble human SIRPα v1 ECD recombinant protein (human, UniProt P78324 31-373, biotin labeled).
T3 construct: extracellular domain
The assay is described as follows: competitive ELISA; competitor 050. As to the method: (§1) Competitive ELISA assay was used for epitope binning of 9 functional antibodies. Briefly excessive competitor antibody and biotin labeled soluble human SIRPα v1 ECD recombinant protein were co-incubated with ELISA microplate coated antibody. After washing, HRP-SA was added and incubated at 37° C. for 1 hour. Then, […] of TMB solution (Biotechnology) was added. After incubation for 15 minutes at room temperature, the reaction was stopped by the addition of […] of 1N HCl. OD 450 nm was read. Competition ratio was calculated. The antibodies that can compete each other for binding to SIRPα have the similar binding epitope.
Background: ELISA stands for enzyme-linked immunosorbent assay.

The target of assay [4] is T3, biotin labeled soluble human SIRPα v1 …. The assay is described as follows: competitive ELISA; competitor 29-AM4-5. As to the method: as §1
Assay [5] has the same target. The assay is described as follows: competitive ELISA, biotin-SIRPα v1 ECD to coated CD47 ECD. As to the method: Competitive ELISA assay was used to determine whether the purified hybridoma antibodies can block CD47 and SIRPα interaction or CD47 and SIRPγ interaction. Briefly, for CD47 and SIRPα interaction blocking activity detection, antibody and biotin labeled soluble human SIRPα v1 ECD recombinant protein were co-incubated with ELISA microplate coated human CD47 ECD recombinant protein.
For CD47 and SIRPγ interaction blocking activity detection, antibody and biotin labeled soluble human CD47 ECD recombinant protein were co-incubated with ELISA microplate coated human SIRPγ ECD recombinant protein. After washing, horseradish peroxidase labeled streptavidin (HRP-SA, Sigma) was added and incubated at 37° C. for 1 hour. Then, 100 μl/well of TMB solution (Biotechnology) was added. After incubation for 15 minutes at room temperature, the reaction was stopped by the addition of 50 μl of 1N HCl. OD 450 nm was read. Blocking ratio and IC₅₀ was calculated. In comparison with other known anti-SIRPα antibodies, 022, 050, 055, and 074 cannot block CD47 and SIRPα interaction. In particular, all of the antibodies of the invention cannot block CD47 and SIRPγ interaction.

What is called IC50 is the point on the concentration scale where inhibition reaches its midpoint.

B1: chimeric antibody 001c (antibody, V domains shown)
VH: EVKLEESGGGLVQPGGSMKLSCVASGFTFRNYWMNWVRQSPERGLEWIAEISLKSNTYATHYAESVKGRFAISRDGSKSSFYLQMNDLRAEDTGIYYCTTFTKVVADWHLDVWGAGTTVTVSS
VL: DVLMTQTPLSLPVSLGDQASISCRSSQNIVHSNGNTYLEWYLQKPGQSPKLLIYKVSNRFSGVPDRFSGSGSGTDFTLRISRVEAEDLGVYYCFQGSHVPFTFGSGTKLEIK
As to B1, the “Positive Staining Population (% in mCD11b, mF4/80 double positive subset)” value in assay [1] amounted to 91%.

B2: chimeric antibody 032c (antibody, V domains shown)
VH: EVRLEESGGGLVQPGGSMKLSCVVSGFTFRNYWMNWVRQSPERGLEWIAEITLKSNTYATHYAESVKGRFAISRDDSKSSFYLQMNDLRPEDTGIYYCTTFTKVVADWHLDVWGAGTTVTVSS
VL: DVLMTQTPLSLPVNLGDQASISCRSSQNIVHSNGNTYLEWYLQKPGQSPKLLIYKVSNRFSGVPDRFSGSGSGTDFTLRISRVEAEDLGVYYCFQGSHVPFTFGSGTKLEIK
Regarding B2, the “Positive Staining Population (% in mCD11b, mF4/80 double positive subset)” value in assay [1] turned out to be 91.5%.

B3: chimeric antibody 002c (antibody, V domains shown)
VH: EVKLEESGGGLVQPGGSMILSCVASGFTFRNYWMNWVRQSPERGLEWIAEITLKSNTYATHYAESVKGRFAISRDDSKSSFYLQMNDLRPEDTGIYYCTTFTKVVADWHLDVWGAGTTVTVSS
VL: DVLMTQTPLSLPVSLGDQASISCRSSQNIVHSNGNTYLEWYLQKPGQSPKLLIYKISNRFSGVPDRFSGSGSGTDFTLRISRVEAEDLGVYYCFQGSHVPFTFGSGTKLEIQ
Consider B3, for which the “Positive Staining Population (% in mCD11b, mF4/80 double positive subset)” value in assay [1] came to 88.9%.

B4: chimeric antibody 050c (antibody, V domains shown)
VH: QIQLVQSGPELKKPGETVKISCKASGYTFTHYSMHWVKQAPGKGLKWMGWINTETAEPTYVDDFKGRFAFSLEASASTAFFQINNLKNEDTATYFCARGGLRQGDYWGQGTTLTVSS
VL: QIVLTQSPPIMSASPGEKVTLTCSATSSVSASYLYWFQQKPGSSPKLWIYSTSNLASGVPARFSGSGSGTSYSLTISNMEPADAASYFCHQWSSYPYTFGGGTKLEIK
As for B4, in assay [1], the “Positive Staining Population (% in mCD11b, mF4/80 double positive subset)” value is 0.16% and the binding result is on record as “no binding”.

B5: Antibody 050 (hybridoma antibody) (antibody, V domains shown)
VH: QIQLVQSGPELKKPGETVKISCKASGYTFTHYSMHWVKQAPGKGLKWMGWINTETAEPTYVDDFKGRFAFSLEASASTAFFQINNLKNEDTATYFCARGGLRQGDYWGQGTTLTVSS
VL: QIVLTQSPPIMSASPGEKVTLTCSATSSVSASYLYWFQQKPGSSPKLWIYSTSNLASGVPARFSGSGSGTSYSLTISNMEPADAASYFCHQWSSYPYTFGGGTKLEIK
notes: mouse hybridoma antibody
B5: the binding result in assay [2] is “no binding (tested: 100 nM)”. The results for the “% Competition” value in assay [3] and in assay [4] were 83% and -6%, respectively.

B6: reference antibody KWAR23 (antibody, V domains shown)
VH: EVQLQQSGAELVKPGASVKLSCTASGFNIKDYYIHWVQQRTEQGLEWIGRIDPEDGETKYAPKFQDKATITADTSSNTAYLHLSSLTSEDTAVYYCARWGAYWGQGTLVTVSS
VL: QIVLTQSPAIMSASPGEKVTLTCSASSSVSSSYLYWYQQKPGSSPKLWIYSTSNLASGVPARFSGSGSGTSYSLTISSMEAEDAASYFCHQWSSYPRTFGAGTKLELK
For the molecule B6, the “% Competition” value in assay [3] was 5%; in assay [4], 54%. In addition, the IC50 in assay [5] worked out at 0.6 nM.

B7: chimeric antibody 035c (antibody, V domains shown)
VH: QIQLVQSGPELRKPGETVKISCKASGYSFTNYAMNWVKQAPGKVLKWMGFINTYTGEPTYADDFKGRFAFSLETSASTAYLQINNLKNEDTATYFCTRTRGYYDFDGGAFDYWGQGTSLTVSS
VL: DIVMTQSQKFMSTSIGDRVSVTCKASQNVGTHLAWYQQKPGQSPKALIFSASYRYIGVPDRFTGSGSGTDFTLTITNVQSEDLAEYFCQQYNTYPLTFGAGTKLELK
Regarding B7, the “MFI at 2 ug/ml” value in assay [2] is 310 MFI. Also, the “Positive Staining Population (% in mCD11b, mF4/80 double positive subset)” value in assay [1] worked out at 91.3%.

B8: chimeric antibody 055c (antibody, V domains shown)
VH: EVKLVESEGGLVQPGDSMKLSCTASGFTFSDYFMTWIRQVPEKGLEWIANVNYDGRSTYYLDSLKSRFIISRDNANNILYLQMSSLKSEDTATYYCAREGSQTPLYAVDYWGQGTSVTVSS
VL: DIVMTQSQKFMSTTVGDRVNITCKASQNVGTAVAWYQQKPGQSPKLLIYLASNRYTGVPDRFTGSGSGTDFTLTVSDMRSEDLADYFCQQYSIYPFTFGSGTKLEIK
Turning to B8, in assay [1], the “Positive Staining Population (% in mCD11b, mF4/80 double positive subset)” value was 0.13% and the binding result is reported as “no binding”.

B9: chimeric antibody 022c (antibody, V domains shown)
VH: QIQLVQSGPELKKPGETVKISCKASGYTFTDYAMHWVKQAPGKGLKWMGWKNTETGESTYAEDFKGRFAFFLETSASTAYLQINNVKNEDTATYFCARGGYGSNYVMDYWGQGTSVIVSS
VL: DIQMTQSSSSFSVSLGDRVTITCKASEDIYNRLAWYQQKPGNAPRLLISGATSLETGVPSRFSGSGSGKDYTLSITSLQTEDVATYYCQQYWNSPRTFGGGTKLEIK
Consider B9, for which the binding result in assay [1] was “no binding”.

B10: Antibody 022 (hybridoma antibody) (antibody, V domains shown)
VH: QIQLVQSGPELKKPGETVKISCKASGYTFTDYAMHWVKQAPGKGLKWMGWKNTETGESTYAEDFKGRFAFFLETSASTAYLQINNVKNEDTATYFCARGGYGSNYVMDYWGQGTSVIVSS
VL: DIQMTQSSSSFSVSLGDRVTITCKASEDIYNRLAWYQQKPGNAPRLLISGATSLETGVPSRFSGSGSGKDYTLSITSLQTEDVATYYCQQYWNSPRTFGGGTKLEIK
notes: mouse hybridoma antibody
In the case of B10, the binding result in assay [2] is recorded as “no binding (tested: 100 nM)”. Besides, the “% Competition” value in assay [3] turned out to be 79%; in assay [4], 2%.

B11: chimeric antibody 060c (antibody, V domains shown)
VH: QVQLKESGPGLVAPSESLSITCTVSGFSLTNYDISWIRQSPGKGLEWLGVIWTGGDTNFNSAFMSRLSISKDKSKSQVFLKLNSLQTDDTAIYYCVRVQYFGGSYGPMDYWGQGISVTVSS
VL: DIQMTQASSYLSVSLGGRVTITCEASDHINDWLAWYQQTPGNAPRLLISGATSLETGVPSRFSGSGSGKDYTLSITSLQTEDIATYYCQQYWNTPLTFGAGTRLELK
With B11, the “Positive Staining Population (% in mCD11b, mF4/80 double positive subset)” value in assay [1] was found to be 86%.

B12: chimeric antibody 074c (antibody, V domains shown)
VH: QVQLQQPRAELVKPGASVMLSCKASGYTFSSYWIHWVRQGPGQGLEWIGLIHPNSGNTDCSETFKNKATLTVDTSSSTAYMQLSSLASEDSAVYYCARDGASYDWFVHWGQGTLVTVSA
VL: not shown
On to B12, for which, in assay [1], the “Positive Staining Population (% in mCD11b, mF4/80 double positive subset)” value was found to be 0.14% and the binding result was “no binding”.

B13: Antibody 074 (hybridoma antibody) (antibody, V domains shown)
VH: QVQLQQPRAELVKPGASVMLSCKASGYTFSSYWIHWVRQGPGQGLEWIGLIHPNSGNTDCSETFKNKATLTVDTSSSTAYMQLSSLASEDSAVYYCARDGASYDWFVHWGQGTLVTVSA
VL: not shown
notes: mouse hybridoma antibody
In the case of B13, the binding result in assay [2] is given as “no binding (tested: 100 nM)”. The entries for the “% Competition” value in assay [3] and in assay [4] were 7% and -19%, respectively.
